System: carbamoylphosphate synthetase (CPSase)
Test: CPSase activity in reaction of carbamoylphosphate (CP) synthesis from glutamine or ammonia, protein extracts, CP by capillary zone electrophoresis
Type: biochemical, E. coli
Protocol: Then, the protein extracts from these 9 clones B-6969(pEL-carAB-NN) and one clone B-6969(pEL-carAB-6) were used to evaluate the activity and fbr of mutant CPSases in reaction of carbamoylphosphate (CP) synthesis from glutamine or ammonia.
The crude cellular extracts from cells were prepared by sonication of 20 mg wet cells pellet suspended in 0.5 ml of buffer A (200 mM K2HPO4/KH2PO4, pH 8.0, 1 mM EDTA, 1 mM PMSF, 1 mM DTT) and treated with solid ammonium sulfate to achieve 65% of saturation. After incubation for 10 min at 4° C., the suspensions were centrifuged at 13,000 rpm for 10 min and the precipitates were dissolved in 1 ml of buffer B (20 mM K2HPO4/KH2PO4, pH 8.0, 50 mM KCl, 1 mM PMSF, 1 mM DTT). The aliquots of obtained protein extracts were used to evaluate the CPSase activity. The schemes of reaction were following: Gln+CO2+2MgATP+H2O→NH2COOPO3^2−+2MgADP+Glu+P1 I. NH3+CO2+[…]+H2O→NH2COOPO3^2−+2MgADP+P1 II.
The 50 μl of each reaction mixture included:
reaction I—20 mM tris-HCl, pH 8.0, 100 mM KCl, 5 mM Na2CO3, 10 mM ATP, 10 mM MgCl2, 5 mM glutamine, 10 μl of protein extract;
reaction II—20 mM tris-HCl, pH 8.0, 100 mM KCl, 5 mM Na2CO3, 10 mM ATP, 10 mM MgCl2, 200mM (NH4)2SO4, 10 μl of protein extract. […]
After incubation for 10 min at 37° C. reactions were stopped by addition of equal volume of EtOH, cooled at −20° C. for 10 min and centrifuged at 13,000 rpm for 1 min at room temperature. Supernatants were cooled at −20° C.
The CP content in reaction mixtures was analyzed by capillary zone electrophoresis. The separation was performed on a Quanta 4000E Capillary Electrophoresis System (“Waters”, USA) with UV indirect detection at 254 nm. The injection was performed by hydrostatic for 25 s. The separation was carried out with an uncoated fused-silica capillary (75 u I.D.* 60cm, effective length 53 cm) and was operated at −25 kV potential. Temperature was maintained at 20° C. The separation buffer consisted of 50 mM Tris base, 25mM benzoic acid (for indirect detection), pH 8.5, 0.25mM TTAB (tetradecyl-trimethyl-ammonium bromide) (for reversion of electroosmotic flow).

B1: clone Wt: wild type E. coli CPSase; CarB 947-951 -Leu-Ser-Val-Arg-Glu- (SEQ ID NO: 28) (protein, UniProt P0A6F1 1-382; P00968 2-1073, looked up)
Carbamoyl phosphate synthase … 1: MIKSALLVLEDGTQFHGRAIGATGSAVGEVVFNTSMTGYQEILTDPSYSRQIVTLTYPHIGNVGTNDADEESSQVHAQGLVIRDLPLIASNFRNTEDLSSYLKRHNIVAIADIDTRKLTRLLREKGAQNGCIIAGDNPDAALALEKARAFPGLNGMDLAKEVTTAEAYSWTQGSWTLTGGLPEAKKEDELPFHVVAYDFGAKRNILRMLVDRGCRLTIVPAQTSAEDVLKMNPDGIFLSNGPGDPAPCDYAITAIQKFLETDIPVFGICLGHQLLALASGAKTVKMKFGHHGGNHPVKDVEKNVVMITAQNHGFAVDEATLPANLRVTHKSLFDGTLQGIHRTDKPAFSFQGHPEASPGPHDAAPLFDHFIELIEQYRKTAK
Carbamoyl phosphate synthase … 2: PKRTDIKSILILGAGPIVIGQACEFDYSGAQACKALREEGYRVILVNSNPATIMTDPEMADATYIEPIHWEVVRKIIEKERPDAVLPTMGGQTALNCALELERQGVLEEFGVTMIGATADAIDKAEDRRRFDVAMKKIGLETARSGIAHTMEEALAVAADVGFPCIIRPSFTMGGSGGGIAYNREEFEEICARGLDLSPTKELLIDESLIGWKEYEMEVVRDKNDNCIIVCSIENFDAMGIHTGDSITVAPAQTLTDKEYQIMRNASMAVLREIGVETGGSNVQFAVNPKNGRLIVIEMNPRVSRSSALASKATGFPIAKVAAKLAVGYTLDELMNDITGGRTPASFEPSIDYVVTKIPRFNFEKFAGANDRLTTQMKSVGEVMAIGRTQQESLQKALRGLEVGATGFDPKVSLDDPEALTKIRRELKDAGADRIWYIADAFRAGLSVDGVFNLTNIDRWFLVQIEELVRLEEKVAEVGITGLNADFLRQLKRKGFADARLAKLAGVREAEIRKLRDQYDLHPVYKRVDTCAAEFATDTAYMYSTYEEECEANPSTDREKIMVLGGGPNRIGQGIEFDYCCVHASLALREDGYETIMVNCNPETVSTDYDTSDRLYFEPVTLEDVLEIVRIEKPKGVIVQYGGQTPLKLARALEAAGVPVIGTSPDAIDRAEDRERFQHAVERLKLKQPANATVTAIEMAVEKAKEIGYPLVVRPSYVLGGRAMEIVYDEADLRRYFQTAVSVSNDAPVLLDHFLDDAVEVDVDAICDGEMVLIGGIMEHIEQAGVHSGDSACSLPAYTLSQEIQDVMRQQVQKLAFELQVRGLMNVQFAVKNNEVYLIEVNPRAARTVPFVSKATGVPLAKVAARVMAGKSLAEQGVTKEVIPPYYSVKEVVLPFNKFPGVDPLLGPEMRSTGEVMGVGRTFAEAFAKAQLGSNSTMKKHGRALLSVREGDKERVVDLAAKLLKQGFELDATHGTAIVLGEAGINPRLVNKVHEGRPHIQDRIKNGEYTYIINTTSGRRAIEDSRVIRRSALQYKVHYDTTLNGGFATAMALNADATEKVISVQEMHAQIK
In the case of B1, the “Activity, (CP)” value (Substrate: 5 mM Gln) is reported as 1350 nmol/mg/min, the “Activity, (CP)” value (Substrate: 5 mM Gln, Allosteric effector: 10 mM UMP) is reported as 170 nmol/mg/min and the “Activity, (CP)” value (Substrate: 200 mM (NH4)2SO4) is reported as 425 nmol/mg/min.

From US7211419B2, “Mutant carbamoylphosphate synthetase and method for producing compounds derived from carbamoylphosphate” (priority 2001, dated 2007)
